Data on nine molecules can be found in patent US7067646 (Dana-Farber, dated 2006).

The target of assay [1] is T1, MTAF600 (microtubule associated factor 600) (human, UniProt Q5T4S7 1-5183).
T1 construct: Native endogenous protein of HeLa nuclear extracts (5183 residues); also called MT-associated factor (MTAF) 600; 600 kDa subunit
Description: anti-FLAG immunoprecipitation of f:RB from HeLa nuclear extract, SDS-PAGE.

The target of assay [2] is T1, MTAF600 (microtubule associated factor …). Description: MTAF600 immobilised on matrix incubated with GST-RB, immunoblot. A general note: A western blot detects proteins with antibodies after separation by electrophoresis.
Assay [3] has the same target. Description: GST pull-down from HeLa nuclear extract, immunoblot.
Assay [4] has as its target endogenous RB family proteins. Put plainly: cell-based or functional assay.
Assay [5] concerns the target T1, MTAF600 (microtubule associated factor …). Description: co-immunoprecipitation from HeLa extract, immunoblot.
The target is the same in assay [6]. Description: immunoprecipitation with RB antibody from HeLa extract, anti-MTAF600 immunoblot.

T1 sequence (Q5T4S7 other isoform, or with tags, fused parts or gaps limits assumed): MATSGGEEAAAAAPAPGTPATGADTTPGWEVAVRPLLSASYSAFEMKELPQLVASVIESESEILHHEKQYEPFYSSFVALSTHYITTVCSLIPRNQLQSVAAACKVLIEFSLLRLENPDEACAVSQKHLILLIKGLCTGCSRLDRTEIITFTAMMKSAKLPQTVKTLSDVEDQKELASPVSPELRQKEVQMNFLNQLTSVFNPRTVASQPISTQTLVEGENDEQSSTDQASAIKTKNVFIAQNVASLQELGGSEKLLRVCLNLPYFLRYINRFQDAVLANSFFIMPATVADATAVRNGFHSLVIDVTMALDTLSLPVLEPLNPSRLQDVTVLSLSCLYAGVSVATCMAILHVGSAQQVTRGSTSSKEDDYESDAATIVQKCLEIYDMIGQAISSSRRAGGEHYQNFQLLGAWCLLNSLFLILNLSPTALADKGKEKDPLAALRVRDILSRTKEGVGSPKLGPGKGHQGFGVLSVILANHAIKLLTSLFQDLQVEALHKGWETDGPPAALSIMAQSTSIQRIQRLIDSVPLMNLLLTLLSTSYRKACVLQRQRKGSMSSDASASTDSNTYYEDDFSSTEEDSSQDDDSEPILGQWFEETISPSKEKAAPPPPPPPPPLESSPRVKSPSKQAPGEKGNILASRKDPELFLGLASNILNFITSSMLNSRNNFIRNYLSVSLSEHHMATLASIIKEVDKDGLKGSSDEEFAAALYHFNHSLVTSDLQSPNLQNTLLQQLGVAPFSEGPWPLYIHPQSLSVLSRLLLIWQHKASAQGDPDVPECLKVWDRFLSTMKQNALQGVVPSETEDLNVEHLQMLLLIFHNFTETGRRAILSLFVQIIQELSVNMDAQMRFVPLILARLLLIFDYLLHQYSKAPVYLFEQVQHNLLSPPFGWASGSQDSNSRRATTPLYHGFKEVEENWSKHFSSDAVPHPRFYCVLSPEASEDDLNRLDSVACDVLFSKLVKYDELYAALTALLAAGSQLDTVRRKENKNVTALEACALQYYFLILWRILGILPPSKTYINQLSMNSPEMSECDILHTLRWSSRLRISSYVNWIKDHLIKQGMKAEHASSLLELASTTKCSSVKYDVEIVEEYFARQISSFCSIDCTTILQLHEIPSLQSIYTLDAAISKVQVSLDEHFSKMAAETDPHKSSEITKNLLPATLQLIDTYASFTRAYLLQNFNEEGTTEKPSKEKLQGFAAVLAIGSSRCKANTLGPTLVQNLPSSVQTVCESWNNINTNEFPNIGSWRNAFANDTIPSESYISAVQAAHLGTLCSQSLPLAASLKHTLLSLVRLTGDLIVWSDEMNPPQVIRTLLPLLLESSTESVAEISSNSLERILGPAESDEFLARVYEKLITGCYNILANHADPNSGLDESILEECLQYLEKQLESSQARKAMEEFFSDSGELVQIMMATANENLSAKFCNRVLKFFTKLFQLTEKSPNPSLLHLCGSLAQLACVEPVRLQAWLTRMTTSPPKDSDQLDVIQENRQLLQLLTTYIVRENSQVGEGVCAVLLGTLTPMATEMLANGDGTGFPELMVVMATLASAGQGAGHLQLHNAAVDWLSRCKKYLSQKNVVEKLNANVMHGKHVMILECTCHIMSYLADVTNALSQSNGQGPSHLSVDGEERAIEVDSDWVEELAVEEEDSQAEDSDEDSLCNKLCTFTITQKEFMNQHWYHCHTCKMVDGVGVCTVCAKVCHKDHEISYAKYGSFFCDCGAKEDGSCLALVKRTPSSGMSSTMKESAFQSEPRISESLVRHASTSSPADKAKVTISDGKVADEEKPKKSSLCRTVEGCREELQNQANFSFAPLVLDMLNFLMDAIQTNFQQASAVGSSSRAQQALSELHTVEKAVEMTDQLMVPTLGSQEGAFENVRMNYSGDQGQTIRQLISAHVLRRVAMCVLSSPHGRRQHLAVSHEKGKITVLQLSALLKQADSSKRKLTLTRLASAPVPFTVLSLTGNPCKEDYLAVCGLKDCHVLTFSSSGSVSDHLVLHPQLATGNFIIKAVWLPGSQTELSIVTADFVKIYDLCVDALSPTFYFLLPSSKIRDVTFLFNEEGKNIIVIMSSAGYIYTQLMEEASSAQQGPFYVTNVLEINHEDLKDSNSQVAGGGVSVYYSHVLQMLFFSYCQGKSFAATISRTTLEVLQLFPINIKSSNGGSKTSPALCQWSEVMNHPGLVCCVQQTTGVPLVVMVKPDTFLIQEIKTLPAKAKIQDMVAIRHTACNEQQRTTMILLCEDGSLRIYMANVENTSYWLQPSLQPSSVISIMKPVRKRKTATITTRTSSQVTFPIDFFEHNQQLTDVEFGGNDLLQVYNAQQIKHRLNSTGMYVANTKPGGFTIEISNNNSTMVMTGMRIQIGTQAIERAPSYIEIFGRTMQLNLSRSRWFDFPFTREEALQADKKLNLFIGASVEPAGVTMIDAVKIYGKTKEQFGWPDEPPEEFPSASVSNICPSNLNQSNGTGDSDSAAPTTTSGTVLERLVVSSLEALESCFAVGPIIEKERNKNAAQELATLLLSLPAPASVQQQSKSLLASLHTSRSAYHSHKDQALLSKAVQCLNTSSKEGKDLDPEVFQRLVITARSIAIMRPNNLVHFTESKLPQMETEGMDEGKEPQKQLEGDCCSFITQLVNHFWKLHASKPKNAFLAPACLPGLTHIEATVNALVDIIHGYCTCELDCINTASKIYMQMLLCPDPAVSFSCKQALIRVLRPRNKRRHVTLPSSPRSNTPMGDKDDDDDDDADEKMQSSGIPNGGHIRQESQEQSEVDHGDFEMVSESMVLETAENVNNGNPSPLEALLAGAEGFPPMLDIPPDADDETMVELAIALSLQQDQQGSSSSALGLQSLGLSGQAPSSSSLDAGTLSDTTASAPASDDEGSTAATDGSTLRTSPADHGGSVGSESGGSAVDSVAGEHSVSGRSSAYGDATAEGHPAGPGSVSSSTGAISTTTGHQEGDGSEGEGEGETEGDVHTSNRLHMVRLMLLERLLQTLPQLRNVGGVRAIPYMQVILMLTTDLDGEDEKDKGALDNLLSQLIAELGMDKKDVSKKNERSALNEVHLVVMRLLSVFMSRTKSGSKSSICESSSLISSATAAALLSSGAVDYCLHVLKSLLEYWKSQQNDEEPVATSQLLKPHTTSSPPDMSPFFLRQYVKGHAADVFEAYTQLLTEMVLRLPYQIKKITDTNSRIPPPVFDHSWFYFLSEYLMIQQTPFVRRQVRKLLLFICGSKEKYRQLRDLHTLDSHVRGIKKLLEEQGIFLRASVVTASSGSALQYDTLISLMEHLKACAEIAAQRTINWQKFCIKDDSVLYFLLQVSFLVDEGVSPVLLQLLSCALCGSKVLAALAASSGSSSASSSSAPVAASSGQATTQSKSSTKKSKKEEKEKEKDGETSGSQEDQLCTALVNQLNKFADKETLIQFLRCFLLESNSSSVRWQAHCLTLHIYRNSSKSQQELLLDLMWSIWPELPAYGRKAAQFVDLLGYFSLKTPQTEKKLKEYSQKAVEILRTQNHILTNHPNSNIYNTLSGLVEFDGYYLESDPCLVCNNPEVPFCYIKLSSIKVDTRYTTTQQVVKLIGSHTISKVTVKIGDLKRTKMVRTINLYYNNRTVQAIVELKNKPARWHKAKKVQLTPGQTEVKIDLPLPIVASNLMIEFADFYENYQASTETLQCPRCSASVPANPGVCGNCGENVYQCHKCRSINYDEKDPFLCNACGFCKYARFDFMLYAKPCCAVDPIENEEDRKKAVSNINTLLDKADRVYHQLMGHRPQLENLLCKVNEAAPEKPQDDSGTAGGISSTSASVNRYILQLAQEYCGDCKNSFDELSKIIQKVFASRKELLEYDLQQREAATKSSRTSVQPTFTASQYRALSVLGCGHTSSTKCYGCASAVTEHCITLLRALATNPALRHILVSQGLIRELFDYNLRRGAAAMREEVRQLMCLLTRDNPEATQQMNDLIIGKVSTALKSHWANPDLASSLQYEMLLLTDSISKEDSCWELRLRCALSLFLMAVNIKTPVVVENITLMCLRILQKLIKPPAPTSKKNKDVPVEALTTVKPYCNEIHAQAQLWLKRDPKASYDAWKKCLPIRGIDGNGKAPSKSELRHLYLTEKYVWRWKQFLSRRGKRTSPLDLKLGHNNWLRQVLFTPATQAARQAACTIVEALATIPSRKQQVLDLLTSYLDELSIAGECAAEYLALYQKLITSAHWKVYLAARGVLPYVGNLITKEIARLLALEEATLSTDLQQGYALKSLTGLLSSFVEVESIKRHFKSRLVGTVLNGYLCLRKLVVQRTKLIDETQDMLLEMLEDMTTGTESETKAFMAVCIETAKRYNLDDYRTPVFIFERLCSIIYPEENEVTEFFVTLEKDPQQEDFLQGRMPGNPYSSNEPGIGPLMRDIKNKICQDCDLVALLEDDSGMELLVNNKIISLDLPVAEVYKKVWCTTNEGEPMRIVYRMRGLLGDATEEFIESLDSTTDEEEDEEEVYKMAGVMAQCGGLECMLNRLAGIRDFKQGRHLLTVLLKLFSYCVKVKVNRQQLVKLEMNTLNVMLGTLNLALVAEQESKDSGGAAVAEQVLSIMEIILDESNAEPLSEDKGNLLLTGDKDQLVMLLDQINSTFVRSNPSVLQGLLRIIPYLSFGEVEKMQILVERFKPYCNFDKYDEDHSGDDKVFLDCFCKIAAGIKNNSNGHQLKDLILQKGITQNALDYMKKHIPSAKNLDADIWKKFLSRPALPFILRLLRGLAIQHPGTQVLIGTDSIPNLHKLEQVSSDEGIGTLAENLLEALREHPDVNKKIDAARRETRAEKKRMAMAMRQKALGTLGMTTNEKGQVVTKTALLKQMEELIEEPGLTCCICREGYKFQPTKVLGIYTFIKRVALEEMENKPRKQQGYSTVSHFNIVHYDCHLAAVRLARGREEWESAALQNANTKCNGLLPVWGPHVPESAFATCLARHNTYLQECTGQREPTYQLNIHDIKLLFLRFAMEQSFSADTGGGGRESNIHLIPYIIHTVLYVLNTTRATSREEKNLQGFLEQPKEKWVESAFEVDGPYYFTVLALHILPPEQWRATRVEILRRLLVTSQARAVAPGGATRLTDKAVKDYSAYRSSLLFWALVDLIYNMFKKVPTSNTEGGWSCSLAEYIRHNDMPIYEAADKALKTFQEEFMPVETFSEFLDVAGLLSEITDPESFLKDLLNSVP

B1: FLAG-epitope-tagged RB (tag at the N-terminus) (other, UniProt P06400 1-928, looked up, not shown: small tags and cut ends)
chain: MPPKTPRKTAATAAAAAAEPPAPPPPPPPEEDPEQDSGPEDLPLVRLEFEETEEPDFTALCQKLKIPDHVRERAWLTWEKVSSVDGVLGGYIQKKKELWGICIFIAAVDLDEMSFTFTELQKNIEISVHKFFNLLKEIDTSTKVDNAMSRLLKKYDVLFALFSKLERTCELIYLTQPSSSISTEINSALVLKVSWITFLLAKGEVLQMEDDLVISFQLMLCVLDYFIKLSPPMLLKEPYKTAVIPINGSPRTPRRGQNRSARIAKQLENDTRIIEVLCKEHECNIDEVKNVYFKNFIPFMNSLGLVTSNGLPEVENLSKRYEEIYLKNKDLDARLFLDHDKTLQTDSIDSFETQRTPRKSNLDEEVNVIPPHTPVRTVMNTIQQLMMILNSASDQPSENLISYFNNCTVNPKESILKRVKDIGYIFKEKFAKAVGQGCVEIGSQRYKLGVRLYYRVMESMLKSEEERLSIQNFSKLLNDNIFHMSLLACALEVVMATYSRSTSQNLDSGTDLSFPWILNVLNLKAFDFYKVIESFIKAEGNLTREMIKHLERCEHRIMESLAWLSDSPLFDLIKQSKDREGPTDHLESACPLNLPLQNNHTAADMYLSPVRSPKKKGSTTRVNSTANAETQATSAFQTQKPLKSTSLSLFYKKVYRLAYLRLNTLCERLLSEHPELEHIIWTLFQHTLQNEYELMRDRHLDQIMMCSMYGICKVKNIDLKFKIIVTAYKDLPHAVQETFKRVLIKEEEYDSIIVFYNSVFMQRLKTNILQYASTRPPTLSPIPHIPRSPYKFPSSPLRIPGGNIYISPLKSPYKISEGLPTPTKMTPRSRILVSIGESFGTSEKFQKINQMVCNSDRVLKRSAEGSNPPKPLKKLRFDIEGSDEADGSKHLPGESKFQQKLAEMTSTRTRMQKQKMNDSMDTSNKEEK
notes: also called f:RB; f: RB
In the case of B1, in assay [1], the binding result is reported as “binds”.

B2: GST-RB (379-928) (other, UniProt P06400 379-928, looked up)
chain: MNTIQQLMMILNSASDQPSENLISYFNNCTVNPKESILKRVKDIGYIFKEKFAKAVGQGCVEIGSQRYKLGVRLYYRVMESMLKSEEERLSIQNFSKLLNDNIFHMSLLACALEVVMATYSRSTSQNLDSGTDLSFPWILNVLNLKAFDFYKVIESFIKAEGNLTREMIKHLERCEHRIMESLAWLSDSPLFDLIKQSKDREGPTDHLESACPLNLPLQNNHTAADMYLSPVRSPKKKGSTTRVNSTANAETQATSAFQTQKPLKSTSLSLFYKKVYRLAYLRLNTLCERLLSEHPELEHIIWTLFQHTLQNEYELMRDRHLDQIMMCSMYGICKVKNIDLKFKIIVTAYKDLPHAVQETFKRVLIKEEEYDSIIVFYNSVFMQRLKTNILQYASTRPPTLSPIPHIPRSPYKFPSSPLRIPGGNIYISPLKSPYKISEGLPTPTKMTPRSRILVSIGESFGTSEKFQKINQMVCNSDRVLKRSAEGSNPPKPLKKLRFDIEGSDEADGSKHLPGESKFQQKLAEMTSTRTRMQKQKMNDSMDTSNKEEK
notes: Expressed in E. coli; also called large pocket domain of RB as GST fusion; not shown: glutathione S-transferase (GST) fusion partner of vector pGEX6P-1
As for B2, in assay [2], the binding result is reported as “binds”.

B3: GST-RB (646-928) (other, UniProt P06400 646-928, looked up)
chain: SLSLFYKKVYRLAYLRLNTLCERLLSEHPELEHIIWTLFQHTLQNEYELMRDRHLDQIMMCSMYGICKVKNIDLKFKIIVTAYKDLPHAVQETFKRVLIKEEEYDSIIVFYNSVFMQRLKTNILQYASTRPPTLSPIPHIPRSPYKFPSSPLRIPGGNIYISPLKSPYKISEGLPTPTKMTPRSRILVSIGESFGTSEKFQKINQMVCNSDRVLKRSAEGSNPPKPLKKLRFDIEGSDEADGSKHLPGESKFQQKLAEMTSTRTRMQKQKMNDSMDTSNKEEK
notes: Expressed in E. coli; not shown: glutathione S-transferase (GST) fusion partner of vector pGEX6P-1
Consider B3, for which the binding result in assay [3] is “no binding”.

B4: FLAG-tagged MTAF600 (3910-4851), Q5T4S7 3910-4851 (protein)
chain: FDYNLRRGAAAMREEVRQLMCLLTRDNPEATQQMNDLIIGKVSTALKSHWANPDLASSLQYEMLLLTDSISKEDSCWELRLRCALSLFLMAVNIKTPVVVENITLMCLRILQKLIKPPAPTSKKNKDVPVEALTTVKPYCNEIHAQAQLWLKRDPKASYDAWKKCLPIRGIDGNGKAPSKSELRHLYLTEKYVWRWKQFLSRRGKRTSPLDLKLGHNNWLRQVLFTPATQAARQAACTIVEALATIPSRKQQVLDLLTSYLDELSIAGECAAEYLALYQKLITSAHWKVYLAARGVLPYVGNLITKEIARLLALEEATLSTDLQQGYALKSLTGLLSSFVEVESIKRHFKSRLVGTVLNGYLCLRKLVVQRTKLIDETQDMLLEMLEDMTTGTESETKAFMAVCIETAKRYNLDDYRTPVFIFERLCSIIYPEENEVTEFFVTLEKDPQQEDFLQGRMPGNPYSSNEPGIGPLMRDIKNKICQDCDLVALLEDDSGMELLVNNKIISLDLPVAEVYKKVWCTTNEGEPMRIVYRMRGLLGDATEEFIESLDSTTDEEEDEEEVYKMAGVMAQCGGLECMLNRLAGIRDFKQGRHLLTVLLKLFSYCVKVKVNRQQLVKLEMNTLNVMLGTLNLALVAEQESKDSGGAAVAEQVLSIMEIILDESNAEPLSEDKGNLLLTGDKDQLVMLLDQINSTFVRSNPSVLQGLLRIIPYLSFGEVEKMQILVERFKPYCNFDKYDEDHSGDDKVFLDCFCKIAAGIKNNSNGHQLKDLILQKGITQNALDYMKKHIPSAKNLDADIWKKFLSRPALPFILRLLRGLAIQHPGTQVLIGTDSIPNLHKLEQVSSDEGIGTLAENLLEALREHPDVNKKIDAARRETRAEKKRMAMAMRQKALGTLGMTTNEKGQVVTKTALLKQMEELIEEPGLTCCICREGYKFQPTK
B4 had a cells in S-phase at 24 hr after replating (FACS, stably transfected U2OS cells; control cells 64%) in assay [4] of 37%.

B5: GST-RB (379-772) (other, UniProt P06400 379-772, looked up)
chain: MNTIQQLMMILNSASDQPSENLISYFNNCTVNPKESILKRVKDIGYIFKEKFAKAVGQGCVEIGSQRYKLGVRLYYRVMESMLKSEEERLSIQNFSKLLNDNIFHMSLLACALEVVMATYSRSTSQNLDSGTDLSFPWILNVLNLKAFDFYKVIESFIKAEGNLTREMIKHLERCEHRIMESLAWLSDSPLFDLIKQSKDREGPTDHLESACPLNLPLQNNHTAADMYLSPVRSPKKKGSTTRVNSTANAETQATSAFQTQKPLKSTSLSLFYKKVYRLAYLRLNTLCERLLSEHPELEHIIWTLFQHTLQNEYELMRDRHLDQIMMCSMYGICKVKNIDLKFKIIVTAYKDLPHAVQETFKRVLIKEEEYDSIIVFYNSVFMQRLKTNILQYA
notes: as for B3
With B5, the binding result in assay [3] is “no binding”.

B6: GST-RB (379-646) (other, UniProt P06400 379-646, looked up)
chain: MNTIQQLMMILNSASDQPSENLISYFNNCTVNPKESILKRVKDIGYIFKEKFAKAVGQGCVEIGSQRYKLGVRLYYRVMESMLKSEEERLSIQNFSKLLNDNIFHMSLLACALEVVMATYSRSTSQNLDSGTDLSFPWILNVLNLKAFDFYKVIESFIKAEGNLTREMIKHLERCEHRIMESLAWLSDSPLFDLIKQSKDREGPTDHLESACPLNLPLQNNHTAADMYLSPVRSPKKKGSTTRVNSTANAETQATSAFQTQKPLKSTS
notes: as for B3
As to B6, the binding result in assay [3] is given as “no binding”.

B7: hypophosphorylated RB (other, human, UniProt P06400 2-928, looked up)
chain: PPKTPRKTAATAAAAAAEPPAPPPPPPPEEDPEQDSGPEDLPLVRLEFEETEEPDFTALCQKLKIPDHVRERAWLTWEKVSSVDGVLGGYIQKKKELWGICIFIAAVDLDEMSFTFTELQKNIEISVHKFFNLLKEIDTSTKVDNAMSRLLKKYDVLFALFSKLERTCELIYLTQPSSSISTEINSALVLKVSWITFLLAKGEVLQMEDDLVISFQLMLCVLDYFIKLSPPMLLKEPYKTAVIPINGSPRTPRRGQNRSARIAKQLENDTRIIEVLCKEHECNIDEVKNVYFKNFIPFMNSLGLVTSNGLPEVENLSKRYEEIYLKNKDLDARLFLDHDKTLQTDSIDSFETQRTPRKSNLDEEVNVIPPHTPVRTVMNTIQQLMMILNSASDQPSENLISYFNNCTVNPKESILKRVKDIGYIFKEKFAKAVGQGCVEIGSQRYKLGVRLYYRVMESMLKSEEERLSIQNFSKLLNDNIFHMSLLACALEVVMATYSRSTSQNLDSGTDLSFPWILNVLNLKAFDFYKVIESFIKAEGNLTREMIKHLERCEHRIMESLAWLSDSPLFDLIKQSKDREGPTDHLESACPLNLPLQNNHTAADMYLSPVRSPKKKGSTTRVNSTANAETQATSAFQTQKPLKSTSLSLFYKKVYRLAYLRLNTLCERLLSEHPELEHIIWTLFQHTLQNEYELMRDRHLDQIMMCSMYGICKVKNIDLKFKIIVTAYKDLPHAVQETFKRVLIKEEEYDSIIVFYNSVFMQRLKTNILQYASTRPPTLSPIPHIPRSPYKFPSSPLRIPGGNIYISPLKSPYKISEGLPTPTKMTPRSRILVSIGESFGTSEKFQKINQMVCNSDRVLKRSAEGSNPPKPLKKLRFDIEGSDEADGSKHLPGESKFQQKLAEMTSTRTRMQKQKMNDSMDTSNKEEK
modifications: hypophosphorylated (sites not given)
notes: also called RB (hypo-phosphorylated)
B7: the binding result in assay [5] is given as “binds”.

B8: RB (retinoblastoma protein), endogenous, HeLa extract (other, human, UniProt P06400 2-928, looked up)
chain: B7 chain
notes: Endogenous RB, both phosphorylation forms together
Regarding B8, the binding result in assay [6] is on record as “binds”.

B9: hyperphosphorylated RB (other, human, UniProt P06400 2-928, looked up)
chain: B7 chain
modifications: hyperphosphorylated (sites not given)
notes: also called P-RB
With B9, the binding result in assay [5] was “binds”.
